In experiment [1] the target is 1PGE-THIVC SOSIP.664 gp140 Env trimer (HIV-1 clade C). In words: negative-stain EM; SEC-purified trimers at 0.01-0.03 mg/ml on carbon-coated grids, 2% uranyl formate, 2D class averages.
The target in another experiment is CD4-IgG2 (UniProt P01730). In words: D-7324 capture ELISA. The note with it: value read at the highest concentration, CD4-IgG2 10 µg/ml; parent: est. 2.5; read off a plot.
The target of the next experiment is PGT145. Nature of the experiment: D-7324 capture ELISA. The note with it: value read at the highest antibody concentration, PGT145 10 µg/ml; parent: est. 1.3; read off a plot.
In a further experiment the target is VRC01. Nature of the experiment: D-7324 capture ELISA. The note with it: value read at the highest antibody concentration, VRC01 10 µg/ml; parent: est. 2.8; read off a plot.

The record followed here is PMC8055034.

“1PGE-THIVC SOSIP.664 gp140 Env trimer (complex)” showed a stoichiometry N in experiment [1] of 3.

For the substance “1PGE-THIVC SOSIP.664 gp140 Env trimer N279E”, the response is 0.98 A450 in the experiment with CD4-IgG2, 1.3 A450 with PGT145 and 0.93 A450 with VRC01.
